Changes are numbered by the printed parent chain.
B1: hAb001H1L1 (antibody, human IgG1, V domains shown)
VH: EVQLVESGGGLVQPGGSLRLSCAASGFSFNTNAMNWVRQAPGKGLEWVGRIRSKSNNYATYYADSVKDRFTISRDDSKNSLYLQMNSLKTEDTAVYYCVRDGYYVLFAYWGQGTLVTVSS
VL: DIVMTQTPLSLPVTPGEPASISCRFSQSIVNSNGNTYLEWFLQKPGQSPQLLIYKVSNRFSGVPDRFSGSGSGTDFTLKISRVEAEDVGVYYCFQGSHVPFTFGQGTKLEIK
notes: Humanized F2.169.2, H1+L1
B2: hAb001H2L1 (antibody, human IgG1, V domains shown)
VH: B1 VH with N79S
VL: B1 VL
notes: Humanized F2.169.2, H2+L1
B3: hAb001H1L1a (antibody, human IgG1, V domains shown)
VH: B1 VH
VL: B1 VL with N33D
notes: Humanized F2.169.2, H1+L1a
B4: hAb001H2L1a (antibody, human IgG1, V domains shown)
VH: B1 VH with N79S
VL: B1 VL with N33D
notes: Humanized F2.169.2, H2+L1a
B5: hAb001H2L1b (antibody, human IgG1, V domains shown)
VH: B1 VH with N79S
VL: B1 VL with G34A
notes: Humanized F2.169.2, H2+L1b
B6: hAb001H1aL1 (antibody, human IgG1, V domains shown)
VH: B1 VH with D68G
VL: B1 VL
notes: Humanized F2.169.2, H1a+L1
B7: hAb001H1aL1b (antibody, human IgG1, V domains shown)
VH: B1 VH with D68G
VL: B1 VL with G34A
notes: Humanized F2.169.2, H1a+L1b
B8: hAb001H1aL1a (antibody, human IgG1, V domains shown)
VH: B1 VH with D68G
VL: B1 VL with N33D
notes: Humanized F2.169.2, H1a+L1a
B9: hAb005LH1L1b (antibody, human IgG1, V domains shown)
VH: EVQLVQSGAEVKKPGASVKVSCKASGYTFTDYEMHWVRQAPGQGLEWMGAIDPETGNTAYIQKFKGRVTMTTDKSTSTAYMELRSLRSDDTAVYYCTRFYSYSHWGQGTTVTVSS
VL: DIVMTQTPLSLPVTPGEPASISCRSSQSLVHSNRNTYLHWYLQKPGQSPQLLIYKVSNRFSGVPDRFSGSGSGTDFTLKISRVEAEDVGVYYCSQNTHVPPTFGGGTKVEIK
notes: Humanized F3.54.12, H1+L1b
B10: hAb006LH3L1c (antibody, human IgG1, V domains shown)
VH: EVQLVQSGAEVKKPGSSVKVSCKASGYTFTDYEIHWVRQAPGQGLEWMGAIDPKTGNTAYNQKFMGRVTLTADKSTSTAYMELSSLRSEDTAVYYCTRYFSFAYWGQGTLVTVSS
VL: B1 VL with F25S, S28T, I29F, N31H, G34R, E39Q, F41Y, F101Y
notes: Humanized F3.38.7, H3+L1c
B11: hAb006LH3L1d (antibody, human IgG1, V domains shown)
VH: B10 VH
VL: B1 VL with F25S, S28T, I29F, N31H, G34S, E39Q, F41Y, F101Y
notes: Humanized F3.38.7, H3+L1d
B12: hAb006LH3L1e (antibody, human IgG1, V domains shown)
VH: B10 VH
VL: B1 VL with F25S, S28T, I29F, N31H, G34V, E39Q, F41Y, F101Y
notes: Humanized F3.38.7, H3+L1e

Biological target: T1, murine GPC3-his protein (murine, UniProt Q8CFZ4 25-558, limits assumed)
T1 construct: Bought protein; also called mouse GPC3 protein; murine GPC3 protein; not shown: His tag
Assay: ELISA, murine GPC3-his coated; antibody 0.53 nM

T1 sequence (Q8CFZ4 25-558 limits assumed): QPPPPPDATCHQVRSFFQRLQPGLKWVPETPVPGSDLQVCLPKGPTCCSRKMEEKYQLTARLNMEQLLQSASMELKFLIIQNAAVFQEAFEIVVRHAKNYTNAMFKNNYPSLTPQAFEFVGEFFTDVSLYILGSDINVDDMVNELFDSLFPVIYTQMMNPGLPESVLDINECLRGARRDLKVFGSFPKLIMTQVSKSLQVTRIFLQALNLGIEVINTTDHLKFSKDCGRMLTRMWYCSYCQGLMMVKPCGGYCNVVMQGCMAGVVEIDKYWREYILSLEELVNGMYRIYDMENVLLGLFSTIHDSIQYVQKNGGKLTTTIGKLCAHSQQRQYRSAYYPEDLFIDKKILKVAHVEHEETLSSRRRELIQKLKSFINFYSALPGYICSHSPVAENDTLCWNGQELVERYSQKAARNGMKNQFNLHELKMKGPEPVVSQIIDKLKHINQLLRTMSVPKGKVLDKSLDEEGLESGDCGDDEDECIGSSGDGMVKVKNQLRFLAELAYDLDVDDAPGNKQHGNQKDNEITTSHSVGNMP

In order of rising OD450 nm:
1. B4  2.19
2. B8  2.29
3. B3  2.37
4. B5  2.38
5. B6  2.45
6. B2  2.48
7. B7  2.52
8. B1  2.8

Biological target: T2, monkey GPC3-His protein (monkey)
T2 construct: Bought protein; also called monkey GPC3 protein
Assay: ELISA, monkey GPC3-His coated; antibody 0.53 nM
Method: (§1) The specific method is described as follows: The antigen protein was diluted with PBS to a final concentration of 1 μg/mL, and the diluent was added to a 96-well ELISA plate at 50 μL/well. The plate was sealed with a plastic film and incubated at 4° C. overnight, washed twice with PBS the next day, and a blocking solution [PBS+2% (w/w) BSA] was added for blocking at room temperature for 2 h. […] After incubation at 37° C. for 2 h, the plate was washed 3 times with PBS. A horseradish peroxidase (HRP)-labeled secondary antibody (purchased from Merck, Cat. No. AP113P) was added for incubation at 37° C. for 1 h, and the plate was washed 5 times with PBS. A TMB substrate was added at 50 μL/well for incubation at room temperature for 10 min, then a stop solution (1.0M HCl) was added at 50 μL/well.

In order of falling OD450 nm:
1. B5  2.54
2. B2  2.47
3. B1  2.46
4. B7  2.39
5. B6  2.36
6. B8  2.19
7. B3  2.08
8. B4  2.02
9. B9  1.09

Biological target: T3, GPC3 on HepG2 cells (human, UniProt P51654 25-554)
T3 construct: whole, on cells; also called glypican-3
Assay: FACS on HepG2 cells
Method: The desired cells were expanded to a logarithmic growth phase in a T-75 cell culture flask, the medium was removed by pipetting, and the cells were washed twice with a PBS buffer, and digested with trypsin. Then a complete medium was added to stop the digestion, and the cells were blown into a single cell suspension. After counting, the cells were centrifuged, and the cell pellet was resuspended with an FACS buffer (PBS+2% fetal bovine serum) to 2×10⁶ cells/mL. The cell resuspension solution was added to a 96-well FACS reaction plate at 50 μl/well, and a humanized antibody sample to be tested was added at 50 μl/well for incubation at 4° C. for 1 h. […] After the plate was centrifuged and washed 3 times with a PBS buffer, 100 μl of the resulting solution was assayed and analyzed by FACS (FACS Canto™, purchased from BD Biosciences). Data analysis was performed by software (FlowJo) to obtain the mean fluorescence intensity (MFI) of the cells. Then, analysis was performed by software (GraphPad Prism8), data were fitted, and EC₅₀ values were calculated.

In order of falling EC50:
1. B9  1.01 nM
2. B12  1.01 nM
3. B11  0.772 nM
4. B10  0.417 nM

In order of falling “Max MFI” value:
1. B9  4800
2. B10  3520
3. B11  3500
4. B12  2780

Biological target: T1, murine GPC3-his protein
Assay: ELISA, murine GPC3-his coated; antibody 0.02 nM
Method: as §1

In order of rising OD450 nm:
1. B3  0.657
2. B4  0.664
3. B8  0.67
4. B5  1.09
5. B6  1.15
6. B7  1.15
7. B2  1.27
8. B1  1.32

Biological target: T2, monkey GPC3-His protein
Assay: ELISA, monkey GPC3-His coated; antibody 66.66 nM
Method: as §1

In order of falling OD450 nm:
1. B2  2.68
2. B7  2.59
3. B5  2.58
4. B1  2.55
5. B6  2.52
6. B8  2.34
7. B4  2.22
8. B3  2.16
9. B9  1.16

Biological target: T1, murine GPC3-his protein
Assay: ELISA, murine GPC3-his coated; antibody 13.33 nM
Method: as §1

In order of falling OD450 nm:
1. B1  2.82
2. B7  2.73
3. B6  2.63
4. B2  2.62
5. B5  2.58
6. B3  2.57
7. B8  2.44
8. B4  2.41

Biological target: T2, monkey GPC3-His protein
Assay: ELISA, monkey GPC3-His coated; antibody 0.011 nM
Method: as §1

In order of rising OD450 nm:
1. B12  0.24
2. B11  0.308
3. B10  0.332

Biological target: T2, monkey GPC3-His protein
Assay: ELISA, monkey GPC3-His coated; antibody 34.72 nM
Method: as §1

In order of rising OD450 nm:
1. B10  1.26
2. B12  1.26
3. B11  1.3

Biological target: T2, monkey GPC3-His protein
Assay: ELISA, monkey GPC3-His coated; antibody 0.11 nM
Method: as §1

In order of rising OD450 nm:
1. B9  0.949
2. B4  1.13
3. B3  1.23
4. B8  1.44
5. B5  1.93
6. B1  1.96
7. B7  1.99
8. B6  2
9. B2  2.11

Biological target: T2, monkey GPC3-His protein
Assay: ELISA, monkey GPC3-His coated; antibody 1.39 nM
Method: as §1

In order of rising OD450 nm:
1. B12  1.07
2. B11  1.28
3. B10  1.32

Biological target: T1, murine GPC3-his protein
Assay: ELISA, murine GPC3-his coated; antibody 2.67 nM
Method: as §1

In order of falling OD450 nm:
1. B1  2.69
2. B7  2.68
3. B2  2.59
4. B6  2.52
5. B3  2.49
6. B8  2.49
7. B5  2.44
8. B4  2.35

Biological target: T2, monkey GPC3-His protein
Assay: ELISA, monkey GPC3-His coated; antibody 0.004 nM
Method: as §1

In order of falling OD450 nm:
1. B2  0.4
2. B6  0.379
3. B1  0.373
4. B7  0.347
5. B5  0.317
6. B9  0.215
7. B3  0.211
8. B8  0.132
9. B4  0.094

Biological target: T2, monkey GPC3-His protein
Assay: ELISA, monkey GPC3-His coated; antibody 0.02 nM
Method: as §1

In order of falling OD450 nm:
1. B1  1.08
2. B2  1.05
3. B6  1.03
4. B7  1.02
5. B5  0.865
6. B9  0.664
7. B8  0.437
8. B3  0.39
9. B4  0.34

Biological target: T2, monkey GPC3-His protein
Assay: ELISA, monkey GPC3-His coated; antibody 0.0004 nM
Method: as §1

In order of rising OD450 nm:
1. B12  0.066
2. B11  0.068
3. B10  0.071

Biological target: T2, monkey GPC3-His protein
Assay: ELISA, monkey GPC3-His coated; antibody 13.33 nM
Method: as §1

In order of falling OD450 nm:
1. B2  2.64
2. B1  2.55
3. B7  2.54
4. B6  2.52
5. B5  2.47
6. B8  2.42
7. B3  2.37
8. B4  2.34
9. B9  1.16

Biological target: T2, monkey GPC3-His protein
Assay: ELISA, monkey GPC3-His coated; antibody 2.67 nM
Method: as §1

In order of falling OD450 nm:
1. B2  2.59
2. B6  2.57
3. B1  2.54
4. B5  2.45
5. B8  2.44
6. B7  2.39
7. B3  2.27
8. B4  2.25
9. B9  1.11

Biological target: T2, monkey GPC3-His protein
Assay: ELISA, monkey GPC3-His coated; antibody 0.002 nM
Method: as §1

In order of falling OD450 nm:
1. B10  0.122
2. B11  0.121
3. B12  0.114

Biological target: T1, murine GPC3-his protein
Assay: ELISA, murine GPC3-his coated; antibody 0.11 nM
Method: as §1

In order of falling OD450 nm:
1. B1  2.31
2. B2  2.1
3. B5  2.06
4. B7  2.05
5. B6  1.95
6. B3  1.66
7. B4  1.59
8. B8  1.49

Biological target: T1, murine GPC3-his protein
Assay: ELISA, murine GPC3-his coated; antibody 66.66 nM
Method: as §1

In order of falling OD450 nm:
1. B7  2.76
2. B6  2.68
3. B1  2.64
4. B5  2.64
5. B2  2.62
6. B3  2.58
7. B4  2.48
8. B8  2.45

Biological target: T1, murine GPC3-his protein
Assay: ELISA, murine GPC3-his coated; antibody 0.004 nM
Method: as §1

In order of falling OD450 nm:
1. B2  0.524
2. B1  0.48
3. B6  0.44
4. B5  0.407
5. B3  0.356
6. B7  0.346
7. B8  0.206
8. B4  0.191

Biological target: T2, monkey GPC3-His protein
Assay: ELISA, monkey GPC3-His coated; antibody 0.056 nM
Method: as §1

In order of falling OD450 nm:
1. B10  0.876
2. B11  0.719
3. B12  0.67

Biological target: T2, monkey GPC3-His protein
Assay: ELISA, monkey GPC3-His coated; antibody 0.28 nM
Method: as §1

In order of falling OD450 nm:
1. B10  1.24
2. B12  1.14
3. B11  1.1

Biological target: T2, monkey GPC3-His protein
Assay: ELISA, monkey GPC3-His coated; antibody 6.94 nM
Method: as §1

In order of falling OD450 nm:
1. B10  1.33
2. B11  1.29
3. B12  1.22

Biological target: T2, monkey GPC3-His protein
Assay: ELISA, monkey GPC3-His coated; antibody 0.0008 nM
Method: as §1

In order of rising OD450 nm:
1. B4  0.063
2. B3  0.068
3. B8  0.073
4. B9  0.107
5. B5  0.143
6. B7  0.144
7. B1  0.198
8. B6  0.201
9. B2  0.304

Biological target: T1, murine GPC3-his protein
Assay: ELISA, murine GPC3-his coated; antibody 0.0008 nM
Method: as §1

In order of falling OD450 nm:
1. B2  0.277
2. B6  0.255
3. B1  0.239
4. B5  0.199
5. B7  0.185
6. B3  0.117
7. B4  0.094
8. B8  0.092
